In US20100183556A1:
Blank lines part the entries; values can stand above or below the substance they belong to.

Biological target: B-domain-deleted human coagulation factor VIII (human) (UniProt P00451)
Assay: cell-based or functional assay

UniProt P00451, sequence (P00451 other isoform, or with tags, fused parts or gaps limits assumed): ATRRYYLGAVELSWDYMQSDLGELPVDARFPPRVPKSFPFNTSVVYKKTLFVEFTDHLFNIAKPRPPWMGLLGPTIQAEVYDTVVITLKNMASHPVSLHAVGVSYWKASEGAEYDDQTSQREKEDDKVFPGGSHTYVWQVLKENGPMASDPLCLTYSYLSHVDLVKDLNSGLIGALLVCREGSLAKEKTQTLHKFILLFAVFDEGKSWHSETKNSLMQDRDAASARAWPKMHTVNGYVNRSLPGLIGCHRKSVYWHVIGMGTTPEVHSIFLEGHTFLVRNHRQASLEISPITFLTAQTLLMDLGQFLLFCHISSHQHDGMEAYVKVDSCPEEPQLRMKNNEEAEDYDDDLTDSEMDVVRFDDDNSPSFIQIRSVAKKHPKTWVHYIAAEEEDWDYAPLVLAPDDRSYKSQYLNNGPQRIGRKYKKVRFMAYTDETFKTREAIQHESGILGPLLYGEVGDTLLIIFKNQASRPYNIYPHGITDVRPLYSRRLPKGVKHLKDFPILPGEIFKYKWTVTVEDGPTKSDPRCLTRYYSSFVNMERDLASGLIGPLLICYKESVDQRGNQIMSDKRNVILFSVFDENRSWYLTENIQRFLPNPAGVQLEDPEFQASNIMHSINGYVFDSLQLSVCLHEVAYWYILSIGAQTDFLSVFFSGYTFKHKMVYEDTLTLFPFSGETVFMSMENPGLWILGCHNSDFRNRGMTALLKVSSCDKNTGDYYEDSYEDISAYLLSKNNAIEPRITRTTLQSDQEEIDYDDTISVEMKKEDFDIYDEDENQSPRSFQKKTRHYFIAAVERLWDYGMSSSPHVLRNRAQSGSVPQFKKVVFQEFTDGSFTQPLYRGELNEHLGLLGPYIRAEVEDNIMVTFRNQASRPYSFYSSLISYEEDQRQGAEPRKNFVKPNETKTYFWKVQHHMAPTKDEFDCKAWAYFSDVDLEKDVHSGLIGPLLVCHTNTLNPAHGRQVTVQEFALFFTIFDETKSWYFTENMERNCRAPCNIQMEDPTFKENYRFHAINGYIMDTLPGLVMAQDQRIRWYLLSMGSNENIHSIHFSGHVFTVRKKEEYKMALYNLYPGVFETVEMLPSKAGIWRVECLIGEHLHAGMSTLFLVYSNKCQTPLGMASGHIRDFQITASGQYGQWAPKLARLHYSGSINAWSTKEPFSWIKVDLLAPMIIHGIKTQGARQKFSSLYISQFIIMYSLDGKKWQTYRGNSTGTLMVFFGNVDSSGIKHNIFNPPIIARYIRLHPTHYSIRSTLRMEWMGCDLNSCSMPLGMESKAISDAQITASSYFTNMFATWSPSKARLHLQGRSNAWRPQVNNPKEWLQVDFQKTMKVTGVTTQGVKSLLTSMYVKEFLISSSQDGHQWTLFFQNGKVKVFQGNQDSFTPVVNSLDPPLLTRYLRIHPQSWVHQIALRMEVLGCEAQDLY

FVIII activity (chromogenic assay) in supernatant of 293T cells co-transfected with pREP7-BDD.FVIII and pRex52: 199 | FVIII activity in supernatant of K562 cells co-transduced with vBDD.FVIII and vEx52 at a MOI of 1.5: 28.3
Substance: full length von Willebrand factor (vWF) (from UniProt P04275 23-2813)

FVIII activity (chromogenic assay) in supernatant of 293T cells co-transfected with pREP7-BDD.FVIII and pRex23: 28.9 | FVIII activity in supernatant of K562 cells co-transduced with vBDD.FVIII and vEx23 at a MOI of 1.5: 33.9
Substance: mutant von Willebrand factor vWF23 (exons 24-46 of vWF deleted) (from UniProt P04275 23-2813)

FVIII activity (chromogenic assay) in supernatant of 293T cells co-transfected with pREP7-BDD.FVIII and pRex28: 107 | FVIII activity in supernatant of K562 cells co-transduced with vBDD.FVIII and vEx28 at a MOI of 1.5: 53.3
Substance: mutant von Willebrand factor vWF28 (exons 29-46 of vWF deleted) (from UniProt P04275 23-2813)
